Test results as given in publication doi:10.1101/2022.01.09.475535 (bioRxiv, 2022).
Where a chain is given by its changes, count along the chain named. Numbers in names are those of the source. Each block holds one binder with its values, some of them ahead of it.

Target: T1, SF3B1 ULM5 peptide (residues 333-351), wild type (human, UniProt O75533-1 333-351)
T1 peptide: KRKSRWDETPASQMGGSTP
Test: ITC

- fold increase of affinity against the ULM5 peptide with the longer N-terminus: 2 fold
B1: U2AF2 UHM (U2AF homology motif domain of U2AF2) (domain or fragment)
chain: TEVLCLMNMVLPEELLDDEEYEEIVEDVRDECSKYGLVKSIEIPRPVDGVEVPGCGKIFVEFTSVFDCQKAMQGLTGRKFANRVVVTKYCDPDSYHRRDFW

- fold decrease of affinity against the wild-type U2AF2 UHM: 4 fold
B2: U2AF2 UHM K453A (domain or fragment)
chain: B1 chain with K79A
